Test results as given in PMC12328707, “Potassium binding by carbonyl clusters, halophilic adaptation and catalysis of Haloferax mediterranei D-2-hydroxyacid dehydrogenase” (Communications Biology, 2025).

Tests used:
Experiment in all cases: purified protein
Format in all cases: biochemical, Haloferax mediterranei
purified protein [1] = substrate: CCCCC(=O)C(=O)O; settings: 0.25 mM NADPH, 4 M KCl, 50 mM HEPES pH 8.0, 22 °C
purified protein [2] = substrate: NC(=O)C1=CN([C@@H]2O[C@H](COP(=O)(O)OP(=O)(O)OC[C@H]3O[C@@H](n4cnc5c(N)ncnc54)[C@H](O)[C@@H]3O)[C@@H](O)[C@H]2O)C=CC1; settings: 20 mM 2-ketohexanoic acid, 4 M KCl, 50 mM HEPES pH 8.0, 22 °C, varied: cofactor
purified protein [3] = substrate: NC(=O)C1=CN([C@@H]2O[C@H](COP(=O)(O)OP(=O)(O)OC[C@H]3O[C@@H](n4cnc5c(N)ncnc54)[C@H](OP(=O)(O)O)[C@@H]3O)[C@@H](O)[C@H]2O)C=CC1; settings: 4 mM 2-ketohexanoic acid, 4 M KCl, 50 mM HEPES pH 8.0, 22 °C, varied: cofactor

B1: D2HDH (Haloferax mediterranei ATCC 33500) (protein)
chain: MHIERLAVDESVGRAMPPQRFIEALSDLGVPVEFAGEDEQFGPGDAVASFGHRDAFLDADWVHCIRAGYDEFPVGVYEEAGTYLTNSTGIHGTTVGETVAGYMLTFARRLHAYRDAQHDHAWDLPRYEEPFTLAGERVCVVGLGTLGRGVVDRAAALGMEVVGVRRSGDPVDNVSTVYTPDRLHEAIADARFVVLATPLTDETEGMVAAPEFETMREDASLVNVARGPVVVESDLVAALDSGDIAGAALDVFSEEPLPEDSPLWDFEDVLITPHVSAATSKYHEDVAALIRENIEKIATGDELTNRVV
notes: homodimer (~66 kDa; 79 kDa by gel filtration); residues 1-308; no tag mentioned
- Km (purified protein [1]): 460 ± 30 µM
- Vmax (purified protein [1]): 2.5 µmol/min/mg
- kcat (purified protein [1]): 1.38 ± 0.0333 s⁻¹
- kcat/Km (purified protein [1]): 3000 M⁻¹ s⁻¹
- Km (purified protein [2]): 97 ± 18 µM
- Vmax (purified protein [2]): 4.4 µmol/min/mg
- kcat (purified protein [2]): 2.48 ± 0.167 s⁻¹
- kcat/Km (purified protein [2]): 25600 M⁻¹ s⁻¹
- Km (purified protein [3]): 14 ± 4 µM
- Vmax (purified protein [3]): 2.5 µmol/min/mg
- kcat (purified protein [3]): 1.38 ± 0.0667 s⁻¹
- kcat/Km (purified protein [3]): 98800 M⁻¹ s⁻¹
